Experimental data taken from the RNAGym collection of RNA variant scans (doi:10.7554/elife.80360).

B1: Hairpin Ribozyme (parent)
chain: GUCCUCUUUCACGUGCGCGUGAAAGAGAGAAGUGAACCAGAGAAACACACGUUGUGGUAUAUUACCUGGUA

Variants of: B1
Assay: self-cleavage, relative activity (ratio to wild type); higher = more cleavage; co-transcriptional

Variant | self-cleavage
GUCCUCUUUCACGUGCUCGUGAAAGAGAGAAGUGUACCAGAGAAACACACGUUGUGGUAUAUUACCUGGUA [G17U A35U] | 0.557
GUCCUCUUUCACGUGCUCGUGAAAGAGAGAAGUGAACCAGAGAAAAACACGUUGUGGUAUAUUACCUGGUA [G17U C46A] | 0.152
GUCCUCUUUCACGUGCCCGUGAAAGAGAGAAGUGAACCAGAGAAACACACGUAGUGGUAUAUUACCUGGUA [G17C U53A] | 0.936
GUCCUCUUUCACGUGCCCGUGAAAGAGAGAAGUGAACCAGAGAAACACACGUCGUGGUAUAUUACCUGGUA [G17C U53C] | 0.826
GUCCUCUUUCACGUGCUCGUGAAAGAGAGAAGUGAACCAGAGAAACACACGUUGUGGUAUAUUGCCUGGUA [G17U A64G] | 0.624
GUCCUCUUUCACGUGCUCGUGAAAGAGAGAAGUGAACCAGAGAAACACACGUUGUGGUAUAUUACCUGGUA [G17U] | 0.961
GUCCUCUUUCACGUGCUCGUGAAAGGGAGAAGUGAACCAGAGAAACACACGUUGUGGUAUAUUACCUGGUA [G17U A26G] | 0.812
GUCCUCUUUCACGUGCUCGUGAAAGAGAGAAGUGAACCAGAGAAACGCACGUUGUGGUAUAUUACCUGGUA [G17U A47G] | 0.15
GUCCUCUUUCACGUGCUCGUGAAAGAGAGCAGUGAACCAGAGAAACACACGUUGUGGUAUAUUACCUGGUA [G17U A30C] | 0.176
GUCCUCUUUCACGUGCUCGUGAAAGAGAGUAGUGAACCAGAGAAACACACGUUGUGGUAUAUUACCUGGUA [G17U A30U] | 0.116
GUCCUCUUUCACGUGCUCGUGAUAGAGAGAAGUGAACCAGAGAAACACACGUUGUGGUAUAUUACCUGGUA [G17U A23U] | 0.811
GUCCUCUUUCACGUGCCCGUGAAAGAGAGAAGUGAACCAGAGAAACACACGUUGAGGUAUAUUACCUGGUA [G17C U55A] | 0.257
GUCCUCUUUCACGUGCUCGUGUAAGAGAGAAGUGAACCAGAGAAACACACGUUGUGGUAUAUUACCUGGUA [G17U A22U] | 0.793
GUCCUCUUUCACGUGCCCGCGAAAGAGAGAAGUGAACCAGAGAAACACACGUUGUGGUAUAUUACCUGGUA [G17C U20C] | 0.585
GUCCUCUUUCACGUGCCCGUGAAAGAGAGAAGAGAACCAGAGAAACACACGUUGUGGUAUAUUACCUGGUA [G17C U33A] | 0.149
GUCCUCUUUCACGUGCCCGUGAAAGAGAGAAGGGAACCAGAGAAACACACGUUGUGGUAUAUUACCUGGUA [G17C U33G] | 0.121
GUCCUCUUUCACGUGCCCGUGAAAGAGAGAAGCGAACCAGAGAAACACACGUUGUGGUAUAUUACCUGGUA [G17C U33C] | 0.237
GUCCUCUUUCACGUGCCCGUGAAAGAGAGAAGUGAACCAGAGAAACACACGUUGUGGCAUAUUACCUGGUA [G17C U58C] | 0.825
GUCCUCUUUCACGUGCCCGUGAAAGAGAGAAGUGAACCAGAGAAACACACGUUGUGGUAUAUUACCUGGAA [G17C U70A] | 0.862

Variant | self-cleavage
GUCCUCUUUCACGUGCCCGUGAAAGAGAGAAGUGAACCAGAGAAACACACGUUGUGGUAUAUUACCUGGGA [G17C U70G] | 0.807
GUCCUCUUUCACGUGCCCGUGAAAGAGAGAAGUGAACCAGAGAAACACACGUUGUGGUAUAUUACCUGGCA [G17C U70C] | 0.866
GUCCUCUUUCACGUGCUCGUGAAAGAGAGAAGUGAACCAGAGAAACACACGUUGUGGUAUAUUACCUGGUG [G17U A71G] | 1.1
GUCCUCUUUCACGUGCUCGUGAAAGAGGGAAGUGAACCAGAGAAACACACGUUGUGGUAUAUUACCUGGUA [G17U A28G] | 1.02
GUCCUCUUUCACGUGCUCGUGAAAGAGAGAAGUGAACCAGUGAAACACACGUUGUGGUAUAUUACCUGGUA [G17U A41U] | 1.51
GUCCUCUUUCACGUGCCCGUGAAAGAGAGAAGUGAACCAGAGAAACACACGUUGUGGUAUAUAACCUGGUA [G17C U63A] | 0.193
GUCCUCUUUCACGUGCUCGUGAAAGAGAGAAGUGAACCUGAGAAACACACGUUGUGGUAUAUUACCUGGUA [G17U A39U] | 0.337
GUCCUCUUUCACGUGCUCGUGAAAGAGAGAAGUGAACCCGAGAAACACACGUUGUGGUAUAUUACCUGGUA [G17U A39C] | 0.479
GUCCUCUUUCACGUGCUCGUGAAAGAGAGAAGUGAUCCAGAGAAACACACGUUGUGGUAUAUUACCUGGUA [G17U A36U] | 0.483
GUCCUCUUUCACGUGCCCGUGAAAGAGAGAAGUGAACCAGAGAAACACACGUUGUGGUAUACUACCUGGUA [G17C U62C] | 0.233
GUCCUCUUUCACGUGCCCGUGAAAGAGAGAAGUGAACCAGAGAAACACACGUUGUGGUAGAUUACCUGGUA [G17C U60G] | 0.425
GUCCUCUUUCACGUGCUCGUGAAAGAGAGAAGUGAACCAGAGAAACACACGUUGUGGUCUAUUACCUGGUA [G17U A59C] | 0.0796
GUCCUCUUUCACGUGCUCGUGAAAGAGAGAAGUGAACCAGAGAAACACGCGUUGUGGUAUAUUACCUGGUA [G17U A49G] | 0.818
GUCCUCUUUCACGUGCUCGUGAAAGAGAGAAGUGAACCAGAGAAACACUCGUUGUGGUAUAUUACCUGGUA [G17U A49U] | 0.195
GUCCUCUUUCACGUGCUCGUGAAAGAGAGAAGUGAACCAGAGAAACACACGUUGUGGUAUCUUACCUGGUA [G17U A61C] | 0.161
GUCCUCUUUCACGUGCUCGUGAAAGAGAGAAGUGAACCAGAGAAACACACGUUGUGGUAUUUUACCUGGUA [G17U A61U] | 0.158
GUCCUCUUUCACGUGCCCGUGAAAGAGAGAAGUGAACCAGAGAAACACACGUUGUGGUAUAUUACCAGGUA [G17C U67A] | 0.227
GUCCUCUUUCACGUGCUCGUGAAAGAGAGAAGUGAACUAGAGAAACACACGUUGUGGUAUAUUACCUGGUA [G17U C38U] | 0.519
GUCCUCUUUCACGUGCUCGUGAAGGAGAGAAGUGAACCAGAGAAACACACGUUGUGGUAUAUUACCUGGUA [G17U A24G] | 0.766
